The target of the test is T1, recombinant human DAF (human, UniProt P08174 35-353, limits assumed).
T1 construct: also called recombinant human decay accelerating factor; CD55
T1 sequence (looked up): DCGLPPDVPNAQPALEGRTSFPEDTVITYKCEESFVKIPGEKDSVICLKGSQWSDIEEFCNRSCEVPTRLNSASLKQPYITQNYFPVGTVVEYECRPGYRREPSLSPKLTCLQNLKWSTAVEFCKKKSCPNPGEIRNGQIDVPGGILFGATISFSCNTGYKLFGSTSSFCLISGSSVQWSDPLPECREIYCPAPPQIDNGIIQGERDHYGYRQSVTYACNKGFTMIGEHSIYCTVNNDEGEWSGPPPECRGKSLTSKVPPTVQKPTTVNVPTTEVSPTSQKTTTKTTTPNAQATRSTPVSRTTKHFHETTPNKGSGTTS
As to the kind of experiment: SPR (BIACORE 1000), recombinant human DAF on CM-5 chip, LU30 scFv 25-100 nM injected.

B1: LU30 scFv fragment (scFv, V domains shown)
VH: QVKLQESGGGLVQPGGSLKLSCAASGFTFSGYGMSWIRQTPDKRLEWVATINSGGSYTYYSDSVKGRFTISRDNVKNTLYLQMSSLKSEDTAMYYCARRNGTLYYYLMDYWGRGTLVTVSS
VL: QSVLTQPPSASGSPGQSVTISCTGTSSDVGGYNYVSWYQQHPGKAPKFMIYDVSKRPSGVSNRFSGSKSGNTASLTISGVQAEDEADYYCSSYTSASTVIFGGGTKLTVL
notes: Human scFv from a naive phage library (Vaughan et al.), secreted from E. coli and purified by its His tag; The full scFv is said to be under GenBank AF117206; also called clone LU30
As for B1, the Kd is 13 nM, the koff was 0.0045 s⁻¹ and the kon worked out at 340000 M⁻¹ s⁻¹.

What is called Kd is the equilibrium constant for the complex coming apart. For orientation: koff means a measure of how fast the partners let go of each other. The term kon denotes the rate constant with which the complex forms.

The record behind these values is patent EP1591456A1 (Genentech Inc., dated 2005).
